Experimental data from paper PMC7617869, “Molecular glues that inhibit deubiquitylase activity and inflammatory signaling” (Nature Structural & Molecular Biology, 2025).
Values joined by “and” are separate entries in the source; they are usually repeats but may differ in a detail not shown here. Identical values can stand only once.

Tests used:
Format in all cases: biochemical
BRISC BRCC45 D248R = BRISC BRCC45 D248R (Homo sapiens, UniProt P46736+Q15018+Q9NXR7, D248R); experiment: BRISC mutant IQF assay: BRCC45 D248R
Procedure: (§1) IQF assays were performed in DUB reaction buffer containing 50 mM HEPES–NaOH pH 7.0, 100 mM NaCl, 0.1 mg ml^−1 BSA, 1 mM DTT and 0.03% v/v Brij-35. […] The final concentration of BRISC WT, all BRISC mutants, HsBRISCΔLoop, MmBRISC and DrBRISCΔNΔC was 1 nM. Other enzymes were tested at the following concentrations: 5 nM ARISC (FL), 10 nM CfBRISCΔNΔC, 250 nM AMSH* (ref. [43]), 500 nM USP2 and 1 μM trypsin (Sigma, 9002-07-7). For Michaelis–Menten experiments, 1 nM BRISC with 0–1 μM IQF K63-linked diubiquitin substrate was used. Michaelis–Menten analyses and Lineweaver–Burk plots were calculated using GraphPad Prism (version 9.0).
(§2) To assess enzymatic activity, BRISC complexes were diluted to concentrations between 1 nM and 50 nM. […] Then, 20-μl enzyme reactions were carried out in 384-well black flat-bottom low-flange plates (Corning, 35373). DUB activity was measured using IQF K63-linked diubiquitin (LifeSensors, DU6303) at 50 nM. Cleaved diubiquitin was monitored by measuring fluorescence intensity (excitation, 544 nm; emission, 575 nm; dichroic mirror, 560 nm). Fluorescence intensity was measured every minute for 30 min at 30 °C. Fluorescence intensity units were plotted against time to generate a linear reaction progress curve, where the initial velocity (V0) corresponds to the gradient of the curve (typically achieved within 15 min). IC50 values were calculated using the GraphPad Prism (version 9.0) built-in dose–response equation for inhibitor concentration versus response (variable slope).

BRISC BRCC45 F140A = BRISC BRCC45 F140A (Homo sapiens, UniProt P46736+Q15018+Q9NXR7, F140A); experiment: BRISC mutant IQF assay: BRCC45 F140A
Procedure: as §1, §2

BRISC BRCC45 C245A = BRISC BRCC45 C245A (Homo sapiens, UniProt P46736+Q15018+Q9NXR7, C245A); experiment: BRISC mutant IQF assay: BRCC45 C245A
Procedure: as §1, §2

BRISC BRCC36 L169A = BRISC BRCC36 L169A (Homo sapiens, UniProt P46736+Q15018+Q9NXR7, L169A); experiment: BRISC mutant IQF assay: BRCC36 L169A
Procedure: as §1, §2

Normalised V0 (BRISC BRCC45 D248R; SHMT2 0.00347222 nM): 0.9357 and 1.056 and 1.018
Normalised V0 (BRISC BRCC45 D248R; SHMT2 0.0347222 nM): 0.8867 and 1.018 and 0.9695
Normalised V0 (BRISC BRCC45 D248R; SHMT2 0.347222 nM): 0.882 and 0.7691 and 0.9453
Normalised V0 (BRISC BRCC45 D248R; SHMT2 1.04167 nM): 0.8534 and 1.006 and 0.8339
Normalised V0 (BRISC BRCC45 D248R; SHMT2 3.125 nM): 0.5795 and 0.5378 and 0.6917
Normalised V0 (BRISC BRCC45 D248R; SHMT2 6.25 nM): 0.5339 and 0.4364 and 0.5979
Normalised V0 (BRISC BRCC45 D248R; SHMT2 12.5 nM): 0.3281 and 0.3163 and 0.4228
Normalised V0 (BRISC BRCC45 D248R; SHMT2 25 nM): 0.3612 and 0.2677 and 0.38
Normalised V0 (BRISC BRCC45 D248R; SHMT2 200 nM): 0.05731 and 0.07178 and 0.09996
Normalised V0 (BRISC BRCC45 F140A; SHMT2 0.00347222 nM): 0.9456 and 0.9686 and 0.8245
Normalised V0 (BRISC BRCC45 F140A; SHMT2 0.0347222 nM): 0.8694 and 1.026 and 0.8239
Normalised V0 (BRISC BRCC45 F140A; SHMT2 0.347222 nM): 0.9307 and 0.9114 and 0.8975
Normalised V0 (BRISC BRCC45 F140A; SHMT2 1.04167 nM): 0.8692 and 0.886 and 0.7736
Normalised V0 (BRISC BRCC45 F140A; SHMT2 3.125 nM): 0.8001 and 0.6891 and 0.7189
Normalised V0 (BRISC BRCC45 F140A; SHMT2 6.25 nM): 0.7321 and 0.6833 and 0.7086
Normalised V0 (BRISC BRCC45 F140A; SHMT2 12.5 nM): 0.4577 and 0.4521 and 0.5184
Normalised V0 (BRISC BRCC45 F140A; SHMT2 25 nM): 0.3014 and 0.3302 and 0.288
Normalised V0 (BRISC BRCC45 F140A; SHMT2 50 nM): 0.2533 and 0.2485 and 0.2535
Normalised V0 (BRISC BRCC45 F140A; SHMT2 100 nM): 0.2137 and 0.184 and 0.161
Normalised V0 (BRISC BRCC45 C245A; SHMT2 0.00347222 nM): 0.9588 and 1.144 and 1.038
Normalised V0 (BRISC BRCC45 C245A; SHMT2 0.0347222 nM): 0.8809 and 1.071 and 0.9852
Normalised V0 (BRISC BRCC45 C245A; SHMT2 0.347222 nM): 0.7622 and 1.011 and 1.053
Normalised V0 (BRISC BRCC45 C245A; SHMT2 1.04167 nM): 0.7409 and 0.9691 and 1.004
Normalised V0 (BRISC BRCC45 C245A; SHMT2 3.125 nM): 0.5581 and 0.7111 and 0.7493
Normalised V0 (BRISC BRCC45 C245A; SHMT2 6.25 nM): 0.4848 and 0.6695 and 0.6719
Normalised V0 (BRISC BRCC45 C245A; SHMT2 12.5 nM): 0.4215 and 0.5643 and 0.477
Normalised V0 (BRISC BRCC45 C245A; SHMT2 25 nM): 0.501 and 0.3965 and 0.329
Normalised V0 (BRISC BRCC45 C245A; SHMT2 50 nM): 0.391 and 0.3153 and 0.2153
Normalised V0 (BRISC BRCC45 C245A; SHMT2 100 nM): 0.3584 and 0.2521 and 0.1837
Normalised V0 (BRISC BRCC45 C245A; SHMT2 200 nM): 0.2257 and 0.1737 and 0.1153
SHMT2 inhibition of BRISC mutant (BRISC BRCC36 L169A): reduced BRISC inhibition by SHMT2
Normalised V0 (BRISC BRCC36 L169A; SHMT2 0.00347222 nM): 1.281 and 0.8219 and 0.8866
Normalised V0 (BRISC BRCC36 L169A; SHMT2 0.0347222 nM): 1.039 and 0.8402 and 0.9713
Normalised V0 (BRISC BRCC36 L169A; SHMT2 0.347222 nM): 1.104 and 0.8836 and 0.9494
Normalised V0 (BRISC BRCC36 L169A; SHMT2 1.04167 nM): 1.083 and 0.823 and 0.89
Normalised V0 (BRISC BRCC36 L169A; SHMT2 3.125 nM): 0.9817 and 0.7218 and 0.8098
Normalised V0 (BRISC BRCC36 L169A; SHMT2 6.25 nM): 1.047 and 0.8687 and 0.8472
Normalised V0 (BRISC BRCC36 L169A; SHMT2 12.5 nM): 0.7117 and 0.4856 and 0.677
Normalised V0 (BRISC BRCC36 L169A; SHMT2 25 nM): 0.5132 and 0.7026 and 0.4911
B1: SHMT2: serine hydroxymethyltransferase 2, metabolic enzyme and endogenous inhibitor of BRISC DUB activity (protein)
chain: QLVRMAIRAQHSNAAQTQTGEANRGWTGQESLSDSDPEMWELLQREKDRQCRGLELIASENFCSRAALEALGSCLNNKYSEGYPGKRYYGGAEVVDEIELLCQRRALEAFDLDPAQWGVNVQPYSGSPANLAVYTALLQPHDRIMGLDLPDGGHLTHGYMSDVKRISATSIFFESMPYKLNPKTGLIDYNQLALTARLFRPRLIIAGTSAYARLIDYARMREVCDEVKAHLLADMAHISGLVAAKVIPSPFKHADIVTTTTHKTLRGTRSGLIFYRKGVKAVDPKTGREIPYTFEDRINFAVFPSLQGGPHNHAIAAVAVALKQACTPMFREYSLQVLKNARAMADALLERGYSLVSGGTDNHLVLVDLRPKGLDGARAERVLELVSITANKNTCPGDRSAITPGGLRLGAPALTSRQFREDDFRRVVDFIDEGVNIGLEVKSKTAKLQDFKSFLLKDSETSQRLANLRQRVEQFARAFPMPGFDEH
